Measured values from the DeepSol protein solubility set.

experiment: soluble on expression in E. coli; label from the status in PepcDB or PDB records

Row | Sequence | soluble on expression in E. coli
1 | MDYVCSVVFICQSFDLIINRRVISFKKNSLFIVSDKIRRELPVCPSKLRIVDIDKKTCLSFFIDVNNELPGKFTLDKNGYIAEEEPPLSLVFSLFEGIKIADSHSLWLKERLCISLLAMFKKRESVNSFILTNINTFTCKITGIISFNIERQWHLKDIAELIYTSESLIKKRLRDEGTSFTEILRDTRMRYAKKLITSNSYSINVVAQKCGYNSTSYFICAFKDYYGVTPSHYFEKIIGVTDGINKTID | not soluble
2 | MSIISTKYLLQDAQANGYAVPAFNIHNAETIQAILEVCSEMRSPVILAGTPGTFKHIALEEIYALCSAYSTTYNMPLALHLDHHESLDDIRRKVHAGVRSAMIDGSHFPFAENVKLVKSVVDFCHSQDCSVEAELGRLGGVEDDMSVDAESAFLTDPQEAKRFVELTGVDSLAVAIGTAHGLYSKTPKIDFQRLAEIREVVDVPLVLHGASDVPDEFVRRTIELGVTKVNVATELKIAFAGAVKAWFAENPQGNDPRYYMRVGMDAMKEVVRNKINVCGSANRISA | soluble
3 | MGSDKIHHHHHHMIKLKKVLVLGGTRFFGKHLVEALLQDGHDVTIATRGITEDSFGSRVKRLIVDREDEKQLAERLADKSYDIVYDNLCYSSNAAKIICEVLRGKTTKYVMTSSMAVYEPALSLSEEDFDPYEYAIAYGDRNDFNYGEGKRLAEAVVFQQATFPVVAVRFPVVIGENDYTKRLQFYVEHIVREEPVAVNHLDGKLSFIHEEEAGEFLAWCGMKDIEGPINACSNGVVSTREIIHFIEENTGIKSLIQEVGDHVAPYNEVTNCTLHNGKANELGFPFRGLKIEIEKVLCYYIHAMK | not soluble
4 | MEVNKKQLADIFGASIRTIQNWQEQGMPVLRGGGKGNEVLYDSAAVIKWYAERDAEIENEKLRREVEE | soluble
5 | MAMDLRDPNVWISHLLENLPEEKLASALKDDNPDWEYIDGEIVKLGSLAHAQLDIPELQRRGLQLLASESKDFRLLAHLLRTLQHAGDPLLALHLLTLYVEHYWTVAAPQNMAHKKRFASQIIKRFETVLKAFHKTLPQRSAILCWVSWRNWRSAGSHITSRNWHRLPMIFLPCTSVRLIVRLLLRSPLRRPPVVHHKPPSRLKAA | not soluble
6 | MSQFTLYKNKDKSSAKTYPYFVDVQSDLLDNLNTRLVIPLTPIELLDKKAPSHLCPTIHIDEGDFIMLTQQMTSVPVKILSEPVNELSTFRNEIIAAIDFLITGI | soluble
7 | MRNEEKHALRRELRRARAQMGHQGRLAAGQTINRLLKRYIKRGRKIGVYWPMGKELRLDGFVRAAQKRGAKLYLPYIEPRSRRMWFTPYPESGMERERIRGRAKLNVPQFAGRKIRVHGLSVLLVPLVGIDREGYRLGQAGGYYDATLAAMKYRLQAKTVGVGFACQFVDRLPREPHDLLLDGFVSEAGILCFLEHHHHHH | not soluble
8 | MEERTLVILGATGSIGTQTLDVLKKVKGIRLIGISFHSNLELAFKIVKEFNVKNVAITGDVEFEDSSINVWKGSHSIEEMLEALKPDITMVAVSGFSGLRAVLASLEHSKRVCLANKESLVCGGFLVKKKLKEKGTELIPVDSEHSAIFQVMEPEVEKVVLTASGGALRDWKISKIDRARPEDVLKHPVWNMGARITVDSATMVNKAFEVLEAMELFELPFEKIEVKIHREGLVHGAVVLPDGNVKMVVSPPDMRIPISYALFYPRRVALEPFFLRTISLSFEDPDPEKYPAFFLLKEIKDSYALRTAFNAADEVAVEAFLKGRIRFGGIHRVIEKTLEEFQGYPQPRTLDDVERIHFEAIKKAERVTEWLSSTSY | soluble
9 | MAISIKGVNTGVIRKSNNFIALALKIKEPRNKESLFFMSVMELRDLLIALESRLHQKHKLDAAAHLQYEQARDKVIKKMAENIPEILVDELKNADINRRVNTLELTDNQGENLTFVLTLHDGSKCELVVNELQIEMLARAIIHAINNAEMRELALRITSLLDFLPLYDVDCQDNGNLEYDTYSQPEWKHNLFDHYLAVLYRFKDESGKEQFSGAVVKTREATPGKEIEAITRRMLDFSPRLKKLAGVPCQVYVRTVAANNAQPLTQDQCLRALHHLRVQSTSKTAPQAK | not soluble
10 | MGSDKIHHHHHHMSKSLIRIAPGALTIGKPLPWDVFDSEGNILLRQGYVIQTNSQLEQLFERGRFKPRKIERPKEETFEDLRQRNPFAEYGDLLTTLEVTLNAITSEDPTAQKRLLGLCRMLDKTCQEAPDASLALVHLYSISPTIHEQILFYGILCHFIARQFGLEEKRATVLTAAALTANLALVPVADQLNASNTVLTDDQRAVIRKHPARSIQALTSAGINNKLLLRIIAQHHEQADGSGYPEGLSGSDILPEAEILALAERYVAMITKRAYRNRMNITEARKLIATLADGKFRPAIPRSLLQVLGDHPPGMLVRLVNNEVGVVTRRADRTRGPFVKAIFGPRGNRYNGTFERDTSLLEYNVRAPEEPEIMPSMDFSMLWGFRS | not soluble
11 | MSLNVDPNITKYVIKAKIVTDGVVEKPDVVGAIFGQTEGLLGEELDLRDLQKSGKIGRIEVEIDTKKGRTEGFVLIPSGLDQVESSILAAALETIDRIGPCKAKVDIEDVEDVRINKRDKVIQRAEELYKKMGTNGKSLSESIIQSVREEVEKKEILSYGEEHLPAGPAVGTSDSIIVVEGRNDVLNLLRYGIKNTIAVQGTSVPKTVKELSKARTVTLFVDGDHGGELIIKEMLQVADVDFIARAPPGTEVEELTYKQIVKALKYKAPVNQYLESHGMIEELKEFTEKNNKAIADMNVNTTVKEEPQQKKQEKEPKHVETAEVEAPVIEEINDINDPRFVRNKLNELFESKAVEIYDDAGNPIARYPVSDAAELMQSVKNGTTIISGGVISQRFVDIAFSMGVKSIYGMKIGHVTKKPDEIRVVTWEHMEGHHHHHH | soluble
12 | MGIIERIKEIEAEMARTQKNKATEYHLGQLKAKIAKLRTQLLEPPKGASGGGEGFEVTKYGHGRVALIGFPSVGKSTLLTMLTGTHSEAASYEFTTLTCIPGVIHYNDTKIQLLDLPGIIEGASEGKGRGRQVIAVAKSSDLVLMVLDASKSEGHRQILTKELEAVGLRLNKTPPQIYFKKKKTGGISFNTTAPLTHIDEKLCYQILHEYKIHNAEVLFRENATVDDFIDVIEGNRKYIKCVYVYNKIDVVGIDDVDRLSRQPNSIVISCNLKLNLDRLLARMWDEMGLVRVYSKPQGQQPDFDEPFVLSSDRGGCTVEDFCNHVHRTLVKDMKYALVWGTSTRHNPQNCGLSQHLEDEDVVQIVKKKERDEGGRGRFKSHSNAPARIADREKKAPLKQ | soluble
13 | GEYKMILVVRNDLKMGKGKVAAQCSHAAVSAYKQIQRRNPEMLKQWEYCGQPKVVVKAPDEETLIALLAHAKMLGLTVSLIQDAGRTQIAPGSQTVLGIGPGPADLIDKVTGHLKLY | soluble
14 | GPVDPAEYDAVWSAWRRAAPAEESRGRAAVVQKMRACLNNGNAVLNVGESGLTTLPDCLPAHITTLVIPDNNLTSLPALPPELRTLEVSGNQLTSLPVLPPGLLELSIFSNPLTHLPALPSGLCKLWIFGNQLTSLPVLPPGLQELSVSDNQLASLPALPSELCKLWAYNNQLTSLPMLPSGLQELSVSDNQLASLPTLPSELYKLWAYNNRLTSLPALPSGLKELIVSGNRLTSLPVLPSELKELMVSGNRLTSLPMLPSGLLSLSVYRNQLTRLPESLIHLSSETTVNLEGNPLSERTLQALREITSAPGYSGPIIRFDMAGASAPRETRALHLAAADWLVPAREGEPAPADRWHMFGQEDNADAFSLFLDRLSETENFIKDAGFKAQISSWLAQLAEDEALRANTFAMATEATSSCEDRVTFFLHQMKNVQLVHNAEKGQYDNDLAALVATGREMFRLGKLEQIAREKVRTLALVDEIEVWLAYQNKLKKSLGLTSVTSEMRFFDVSGVTVTDLQDAELQVKAAEKSEFREWILQWGPLHRVLERKAPERVNALREKQISDYEETYRMLSDTELRPSGLVGNTDAERTIGARAMESAKKTFLDGLRPLVEEMLGSYLNV | soluble
15 | MGSDKIHHHHHHMGKFLKKHYIMAPGPTPVPNDILTEGAKETIHHRTPQFVSIMEETLESAKYIFQTKHNVYAFASTGTGAMEAAVANLVSPGDKVIVVVAGKFGERWRELCQAYGADIVEIALEWGDAVTPEQIEEALNKNPDAKVVFTTYSETSTGTVIDLEGIARVTKEKDVVLVTDAVSALGAEPLKMDEWGVDLVVTGSQKGLMLPPGLALISLNDKAWGLVEKSRSPRYYFDLRAYRKSYPDNPYTPAVNMIYMLRKALQMIKEEGIENVWERHRILGDATRAAVKALGLELLSKRPGNVVTAVKVPEGIDGKQIPKIMRDKYGVTIAGGQAKLKGKIFRIAHLGYMSPFDTITAISALELTLKELGYEFELGVGVKAAEAVFAKEFIGE | not soluble
16 | MGSDKIHHHHHHMPRQMRPDIADIRTGADLRQWYWRKDELVAHARTLGLKRSGAKFTILDRIAHFLDTGARDLPEAPAPKPTSDFDWHSAKLTPDTILTDSYKNTQNVRRFFKAQLGPRFAFSIPLMAWLKENSGKTLSDACAVWRDLQAERRRPGWQSDIKGHNQFNQYTRDFLAAHPDLGMDDVRRVWARKIQQPSPDGRHIYEPSDLDL | not soluble
17 | RLLGAPVPVDENDEGLQRALQFAMAEYNRASNDKYSSRVVRVISAKRQLVSGIKYILQVEIGRTTCPKSSGDLQSCEFHDEPEMAKYTTCTFVVYSIPWLNQIKLLESKCQ | soluble
18 | MGSDKIHHHHHHMTPTIVFDGGYTLWSAGDDAPLAFMTDGLARRLGTPVFKAFVRHPHASFDRRFGVQTLPNLEHESKAGAAGRWFRGLNFTDPRGELAAVADTVAQADLLIMGAGNFITEVGMDVLRGHLPRFCTMALMAQMAGTPYMLFGLSANVLHNPWAVRAAGWLLRGAAAVTFRERMAVENLRACGVALPEHTLLPDAALGAPRAPQGRGDEILRQEQIPSRTAGLRLALAVRDLSWMGSHAAALYERHQTELINLWCARKDNDVLLVPQCCYHADSGITDDRVLGRTLRGRSRFSDKVHVIEGCYHYDDIESLYTQADCAVATRLHGSVFAARMGIPVVGLAYEDKVRGFFGQLQAEDQCLPWDAPATDILALLDSLMLRVQAVRDHMLHRIEQLQQQLAGYIDIAAALAAPAGDHTP | not soluble
19 | MGSDKIHHHHHHMNANQFLKAVSQLQGWRECAFLLALAERSFPNYALFADAVGLKTGGKMRQLLDLAWDMLQKDVADAAIPQLLSKLETLCPNVDEYDAYGVYPAFDFCQLLEQALLNRLNPNKHRATEASQLATRTVMDFVEMSEGEGMDENELVRVFEHHPLLKDDKLFQRDTVMALKKQRTPKEAFLAELRAGAANDGVSNLGISLEG | not soluble
20 | MGSDKIHHHHHHMSKNNNPVEQLLKEKPYILLDGALATELERHGRNLDDPLWSARVLLEEPEQIHRVHANYFKIGADCAITSSYQASVAGFSSRGIKEEEAIELMKQTVYLAQQARAETGPAADHALIAGSIGPYGAYLSDGSEYIGHYGVDDAQLEAFHRPRLEALIAAGADVLAFETIPSLQEAKMLFRLLEEFPEQSAWLAFSLRDATHISEGTPLSECIEALGDHPQLAAIGANCFPASIATEFITTLKQLTDVPIIVYPNSGEQYDPVSKTWSGETVRTAFEDIAPEWYAAGARLIGGCCRTTPEQIGEIRKIVHAQ | not soluble
21 | MGSDKIHHHHHHAQTDSMLIRPTVDKRVELLSIIFRLTGNPEYNRNDFKLYTDRIESHFSPYKNHELISFARSLVKTDGVSYDAVMSMAINLDNQFNLPADYGSLDSRWNRNQVGPFIKLLKKFVKDSRFDAFYHSNENLYQEAVSRFMPIYKSIDTQWYNDFYGQKSNDRFHIILSMSNGPGNYGPSVTDKENVHNVFSVMGAWVTDSVGMVVYPPELILPILIHEFNHSFINFDPEMFRTSGEQIYAAVGEQMARQAYGQWSIVLTEAMVRAAVIKYMKDHNFPAVEITKETVIQKTRGFVWISKLVDELEKYSSDRTTYPTLNSYMPRLAEAYTGFAQYTANYDSIRPKVVSIDEFTNGDTTVRSDIKTITVHFDRPLVGRGHSFNYGHLGMEAMPKIINVNYANDNRTVIIGVELLPGKEYGITLLGLSFRTPEGDAIKPYEISFKTAE | not soluble
